Test results published in PMC8564539.
Each block holds one substance with its values, some of them ahead of it.

What was measured:
Test in all cases: AlphaScreen or HTRF; ALPHA: FLAG-tagged domain mixed with biotin-tagged domain (cell-free translation mixtures), streptavidin donor beads, anti-DYKDDDDK antibody with protein A acceptor beads; 100 mM Tris-HCl pH 8.0, 0.01% Tween 20, 1 mg/mL BSA; 25 °C, 24 h; median of duplicate reactions
CASP1_CARD (human) = CASP1_CARD (human) (UniProt P29466)
NLRC4_CARD (human) = NLRC4_CARD (human) (UniProt Q9NPP4)
ASC_PYD-CARD (human) = ASC_PYD-CARD (human) (UniProt Q9ULZ3)
IRAK3_DD (human) = IRAK3_DD (human) (UniProt Q9Y616)
FADD_DED-DD (human) = FADD_DED-DD (human) (UniProt Q13158)
CASP2_CARD (human) = CASP2_CARD (human) (UniProt P42575)
PYDC2_PYD (human) = PYDC2_PYD (human) (UniProt Q56P42)
CASP10_DED1-DED2 (human) = CASP10_DED1-DED2 (human) (UniProt Q92851)
TNFRSF1A_DD (human) = TNFRSF1A_DD (human) (UniProt P19438)
CFLAR_DED1-DED2 (human) = CFLAR_DED1-DED2 (human) (UniProt O15519)
CASP8_DED1-DED2 (human) = CASP8_DED1-DED2 (human) (UniProt Q14790)
TRADD_DD (human) = TRADD_DD (human) (UniProt Q15628)
RIPK1_DD (human) = RIPK1_DD (human) (UniProt Q13546)
CASP8_DED1 (human) = CASP8_DED1 (human) (UniProt Q14790)
DAPK1_DD (human) = DAPK1_DD (human) (UniProt P53355)
Sequence of DAPK1_DD (human) (P53355 1312-1396): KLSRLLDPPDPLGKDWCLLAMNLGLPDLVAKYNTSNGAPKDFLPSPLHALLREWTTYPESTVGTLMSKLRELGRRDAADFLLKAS

Sequence of FADD_DED-DD (human) (Q13158 whole entry): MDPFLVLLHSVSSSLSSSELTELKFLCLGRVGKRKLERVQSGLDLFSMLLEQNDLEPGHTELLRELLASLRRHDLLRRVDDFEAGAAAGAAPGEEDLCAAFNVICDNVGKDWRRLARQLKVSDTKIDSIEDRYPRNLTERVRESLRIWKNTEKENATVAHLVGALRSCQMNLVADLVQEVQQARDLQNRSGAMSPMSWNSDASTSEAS
Sequence of CASP1_CARD (P29466 1-91): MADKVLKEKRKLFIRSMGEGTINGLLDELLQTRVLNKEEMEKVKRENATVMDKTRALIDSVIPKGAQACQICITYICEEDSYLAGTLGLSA
Sequence of CASP1_CARD (human) (P29466 1-91): as above
Sequence of CRADD_CARD-DD (P78560 whole entry, the tested form may be a part): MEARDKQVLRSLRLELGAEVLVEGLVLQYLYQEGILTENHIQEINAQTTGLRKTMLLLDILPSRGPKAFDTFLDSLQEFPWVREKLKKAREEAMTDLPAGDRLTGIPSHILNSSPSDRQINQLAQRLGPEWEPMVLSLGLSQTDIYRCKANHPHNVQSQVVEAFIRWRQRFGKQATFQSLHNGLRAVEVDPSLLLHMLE
Sequence of NLRC4_CARD (human) (Q9NPP4 1-88): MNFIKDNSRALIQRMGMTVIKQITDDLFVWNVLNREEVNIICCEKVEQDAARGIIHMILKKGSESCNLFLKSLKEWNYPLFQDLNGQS
Sequence of PYDC2_PYD (human) (Q56P42 whole entry): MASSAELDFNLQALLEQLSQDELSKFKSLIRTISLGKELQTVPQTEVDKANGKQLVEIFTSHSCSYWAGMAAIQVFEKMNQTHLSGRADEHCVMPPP
Sequence of RIPK1_DD (human) (Q13546 583-669): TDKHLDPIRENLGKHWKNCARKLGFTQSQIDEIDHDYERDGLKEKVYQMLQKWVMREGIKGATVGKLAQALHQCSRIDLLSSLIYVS
Sequence of TNFRSF1A_DD (human) (P19438 356-441): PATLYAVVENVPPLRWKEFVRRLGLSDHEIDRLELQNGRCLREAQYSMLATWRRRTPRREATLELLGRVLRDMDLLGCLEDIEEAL
Sequence of CASP2_CARD (human) (P42575 32-121): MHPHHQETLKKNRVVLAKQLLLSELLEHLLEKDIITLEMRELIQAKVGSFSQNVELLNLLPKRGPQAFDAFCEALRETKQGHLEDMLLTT
Sequence of ASC_PYD-CARD (human) (Q9ULZ3 whole entry): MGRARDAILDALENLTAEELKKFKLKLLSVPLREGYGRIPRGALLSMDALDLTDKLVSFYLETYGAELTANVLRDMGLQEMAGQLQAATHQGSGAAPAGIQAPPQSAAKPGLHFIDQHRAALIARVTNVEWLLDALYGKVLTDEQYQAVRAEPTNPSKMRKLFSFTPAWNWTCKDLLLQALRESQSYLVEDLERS
Sequence of TRADD_DD (human) (Q15628 179-289): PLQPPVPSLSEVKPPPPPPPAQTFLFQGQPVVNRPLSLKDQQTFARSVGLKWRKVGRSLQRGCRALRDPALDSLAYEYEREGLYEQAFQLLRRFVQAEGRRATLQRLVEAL
Sequence of IRAK3_DD (human) (Q9Y616 whole entry): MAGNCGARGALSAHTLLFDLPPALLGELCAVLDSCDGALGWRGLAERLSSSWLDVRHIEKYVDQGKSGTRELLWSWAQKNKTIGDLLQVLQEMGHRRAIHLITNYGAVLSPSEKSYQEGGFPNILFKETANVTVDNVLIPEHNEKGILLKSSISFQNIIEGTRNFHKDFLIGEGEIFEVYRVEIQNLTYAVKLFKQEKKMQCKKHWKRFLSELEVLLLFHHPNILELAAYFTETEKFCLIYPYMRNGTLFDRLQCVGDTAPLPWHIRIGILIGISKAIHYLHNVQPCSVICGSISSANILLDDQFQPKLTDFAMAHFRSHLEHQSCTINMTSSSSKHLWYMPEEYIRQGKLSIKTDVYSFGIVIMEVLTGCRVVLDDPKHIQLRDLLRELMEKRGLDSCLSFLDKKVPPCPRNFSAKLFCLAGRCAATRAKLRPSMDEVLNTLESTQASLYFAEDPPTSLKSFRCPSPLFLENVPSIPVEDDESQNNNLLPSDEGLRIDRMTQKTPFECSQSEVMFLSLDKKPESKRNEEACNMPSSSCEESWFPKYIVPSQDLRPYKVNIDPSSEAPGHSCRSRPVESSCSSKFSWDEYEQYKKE
Sequence of FADD_DED-DD (Q13158 whole entry, the tested form may be a part): as the sequence (Q13158 whole entry) above

Substance: ASC_PYD-CARD (from UniProt Q9ULZ3 1-195) (domain or fragment)
ALPHA signal (RLU) (CASP1_CARD (human)): 1730 RLU | ALPHA signal (RLU) (NLRC4_CARD (human)): 1690 RLU

Substance: CASP1_CARD (from UniProt P29466 1-91) (domain or fragment)
ALPHA signal (RLU) (ASC_PYD-CARD (human)): 4880 RLU

Substance: CASP8_DED1 (from UniProt Q14790 2-80) (domain or fragment)
ALPHA signal (RLU) (IRAK3_DD (human)): 968 RLU

Substance: CRADD_CARD-DD (from UniProt P78560 1-199) (domain or fragment)
ALPHA signal (RLU) (CASP2_CARD (human)): 2420 RLU

Substance: DAPK1_DD (from UniProt P53355 1312-1396) (domain or fragment)
ALPHA signal (RLU) (PYDC2_PYD (human)): 3540 RLU

Substance: PYDC2_PYD (from UniProt Q56P42 1-97) (domain or fragment)
ALPHA signal (RLU) (DAPK1_DD (human)): 970 RLU

Substance: RIPK1_DD (from UniProt Q13546 583-669) (domain or fragment)
ALPHA signal (RLU) (FADD_DED-DD (human)): 30600 RLU

Substance: TRADD_DD (from UniProt Q15628 179-289) (domain or fragment)
ALPHA signal (RLU) (FADD_DED-DD (human)): 31700 RLU

Continued, values first:

ALPHA signal (RLU) (FADD_DED-DD (human)): 9380 RLU
Substance: CASP8_DED1-DED2 (from UniProt Q14790 1-177) (domain or fragment)

ALPHA signal (RLU) (FADD_DED-DD (human)): 10200 RLU
Substance: CASP10_DED1-DED2 (from UniProt Q92851 19-187) (domain or fragment)

ALPHA signal (RLU) (CASP10_DED1-DED2 (human)): 20700 RLU | ALPHA signal (RLU) (TNFRSF1A_DD (human)): 964 RLU | ALPHA signal (RLU) (CFLAR_DED1-DED2 (human)): 20100 RLU | ALPHA signal (RLU) (CASP8_DED1-DED2 (human)): 11000 RLU | ALPHA signal (RLU) (TRADD_DD (human)): 39600 RLU | ALPHA signal (RLU) (RIPK1_DD (human)): 20000 RLU
Substance: FADD_DED-DD (from UniProt Q13158 1-208) (domain or fragment)

ALPHA signal (RLU) (CASP8_DED1 (human)): 1350 RLU
Substance: IRAK3_DD (from UniProt Q9Y616 1-596) (domain or fragment)

ALPHA signal (RLU) (FADD_DED-DD (human)): 5570 RLU
Substance: TNFRSF1A_DD (from UniProt P19438 356-441) (domain or fragment)
